Results published in article PMC7472415 (Viruses, 2020).

Biological target: B/NP_TAIL mut1-YFP, B/NP_TAIL-YFP with point mutations in the positive charge patch of the NLS (influenza B virus B/Memphis/13/03)
Assay: SPR

Sequence of human importin-α7 without its importin-β binding (IBB) domain (residues 58 to 536) (O60684 58-536): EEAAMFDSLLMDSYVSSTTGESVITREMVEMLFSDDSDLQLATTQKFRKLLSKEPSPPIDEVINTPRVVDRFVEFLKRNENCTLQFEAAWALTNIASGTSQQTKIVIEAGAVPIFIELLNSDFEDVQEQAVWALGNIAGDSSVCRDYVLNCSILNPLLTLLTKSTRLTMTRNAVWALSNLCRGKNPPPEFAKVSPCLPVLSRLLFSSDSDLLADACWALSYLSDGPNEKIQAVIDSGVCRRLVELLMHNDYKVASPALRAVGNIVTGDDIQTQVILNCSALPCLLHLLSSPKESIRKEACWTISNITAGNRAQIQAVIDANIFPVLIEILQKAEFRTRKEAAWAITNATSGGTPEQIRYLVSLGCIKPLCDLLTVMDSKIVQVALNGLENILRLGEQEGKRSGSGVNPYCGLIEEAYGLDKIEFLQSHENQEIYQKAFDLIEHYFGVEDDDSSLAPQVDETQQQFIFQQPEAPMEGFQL
Sequence of human importin-α5 without its importin-β binding (IBB) domain (residues 66 to 538) (P52294 66-538): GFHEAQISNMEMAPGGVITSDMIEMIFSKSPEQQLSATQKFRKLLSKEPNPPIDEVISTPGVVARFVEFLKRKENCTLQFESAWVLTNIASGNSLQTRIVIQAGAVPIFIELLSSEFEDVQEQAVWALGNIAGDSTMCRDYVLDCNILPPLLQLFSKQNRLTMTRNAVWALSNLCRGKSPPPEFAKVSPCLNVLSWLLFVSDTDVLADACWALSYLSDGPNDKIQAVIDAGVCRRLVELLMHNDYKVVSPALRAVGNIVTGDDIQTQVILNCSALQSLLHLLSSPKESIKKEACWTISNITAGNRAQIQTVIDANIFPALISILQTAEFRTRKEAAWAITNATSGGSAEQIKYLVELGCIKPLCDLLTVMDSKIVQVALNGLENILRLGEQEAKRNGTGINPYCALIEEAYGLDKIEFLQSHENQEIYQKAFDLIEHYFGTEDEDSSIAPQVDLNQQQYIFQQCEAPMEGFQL
Sequence of human importin-α3 without its importin-β binding (IBB) domain (residues 64 to 521) (O00629 64-521): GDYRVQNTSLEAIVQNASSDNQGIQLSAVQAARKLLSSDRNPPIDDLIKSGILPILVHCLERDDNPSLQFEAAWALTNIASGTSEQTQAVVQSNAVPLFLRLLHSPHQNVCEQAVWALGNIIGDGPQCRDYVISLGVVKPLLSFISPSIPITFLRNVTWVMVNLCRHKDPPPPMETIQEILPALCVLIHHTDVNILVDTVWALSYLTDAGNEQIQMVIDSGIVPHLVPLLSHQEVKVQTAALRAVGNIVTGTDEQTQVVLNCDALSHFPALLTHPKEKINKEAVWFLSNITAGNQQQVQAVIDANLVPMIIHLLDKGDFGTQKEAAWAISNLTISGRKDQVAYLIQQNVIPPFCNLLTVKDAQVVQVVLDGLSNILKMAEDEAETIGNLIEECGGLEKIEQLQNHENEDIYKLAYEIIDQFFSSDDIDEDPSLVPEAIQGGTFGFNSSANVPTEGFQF

Substance	Kd [µM]
human importin-α3 without its importin-β binding (IBB) domain (residues 64 to 521) (from UniProt O00629 64-521) (domain or fragment)	> 5
human importin-α5 without its importin-β binding (IBB) domain (residues 66 to 538) (from UniProt P52294 66-538) (domain or fragment)	> 5
human importin-α7 without its importin-β binding (IBB) domain (residues 58 to 536) (from UniProt O60684 58-536) (domain or fragment)	> 5
